Measurements published in US20230174610A1 (Harvard, published 2023).

B1: SE004, Protein C-tag and His-tag single-chain relaxin (ligand)
chain: EDQVDPRLIDGKGSHHHHHHDSWMEEVIKLCGRELVRAQIAICGMSTWSDAASSHSHSSARQLYSALANKCCHVGCTKRSLARFC
B2: SE005, Truncated His-tag single-chain relaxin (ligand)
chain: HHHHHHEEVIKLCGRELVRAQIAICGMSTWSDAASSHSHSSARQLYSALANKCCHVGCTKRSLARFC
B3: SE001, His-tag single-chain relaxin (ligand)
chain: HHHHHHDSWMEEVIKLCGRELVRAQIAICGMSTWSDAASSHSHSSARQLYSALANKCCHVGCTKRSLARFC
B4: SE401, Single-chain relaxin with the combined substitutions of SE201, 204-207, fused to the C-terminus of mouse serum albumin with an N-terminal 8X His-tag (other)
chain: HHHHHHHHRGVFRREAHKSEIAHRYNDLGEQHFKGLVLIAFSQYLQKCSYDEHAKLVQEVTDFAKTCVADESAANCDKSLHTLFGDKLCAIPNLRENYGELADCCTKQEPERNECFLQHKDDNPSLPPFERPEAEAMCTSFKENPTTFMGHYLHEVARRHPYFYAPELLYYAEQYNEILTQCCAEADKESCLTPKLDGVKEKALVSSVRQRMKCSSMQKFGERAFKAWAVARLSQTFPNADFAEITKLATDLTKVNKECCHGDLLECADDRAELAKYMCENQATISSKLQTCCDKPLLKKAHCLSEVEHDTMPADLPAIAADFVEDQEVCKNYAEAKDVFLGTFLYEYSRRHPDYSVSLLLRLAKKYEATLEKCCAEANPPACYGTVLAEFQPLVEEPKNLVKTNCDLYEKLGEYGFQNAILVRYTQKAPQVSTPTLVEAARNLGRVGTKCCTLPEDQRLPCVEDYLSAILNRVCLLHEKTPVSEHVTKCCSGSLVERRPCFSALTVDETYVPKEFKAETFTFHSDICTLPEKEKQIKKQTALAELVKHKPKATAEQLKTVMDDFAQFLDTCCKAADKDTCFSTEGPNLVTRCKDALAGGSDSWKEEVIKLCGRELVRAQIAICGKSTASDAAGANANAGARQLYSALANKCCHVGCTKRSLARFC

target: T1, RXFP1 receptor expressed by transient transfection in HEK293T cells (UniProt Q9HBX9 1-757, limits assumed); assay: cell-based or functional assay
T1 sequence (looked up): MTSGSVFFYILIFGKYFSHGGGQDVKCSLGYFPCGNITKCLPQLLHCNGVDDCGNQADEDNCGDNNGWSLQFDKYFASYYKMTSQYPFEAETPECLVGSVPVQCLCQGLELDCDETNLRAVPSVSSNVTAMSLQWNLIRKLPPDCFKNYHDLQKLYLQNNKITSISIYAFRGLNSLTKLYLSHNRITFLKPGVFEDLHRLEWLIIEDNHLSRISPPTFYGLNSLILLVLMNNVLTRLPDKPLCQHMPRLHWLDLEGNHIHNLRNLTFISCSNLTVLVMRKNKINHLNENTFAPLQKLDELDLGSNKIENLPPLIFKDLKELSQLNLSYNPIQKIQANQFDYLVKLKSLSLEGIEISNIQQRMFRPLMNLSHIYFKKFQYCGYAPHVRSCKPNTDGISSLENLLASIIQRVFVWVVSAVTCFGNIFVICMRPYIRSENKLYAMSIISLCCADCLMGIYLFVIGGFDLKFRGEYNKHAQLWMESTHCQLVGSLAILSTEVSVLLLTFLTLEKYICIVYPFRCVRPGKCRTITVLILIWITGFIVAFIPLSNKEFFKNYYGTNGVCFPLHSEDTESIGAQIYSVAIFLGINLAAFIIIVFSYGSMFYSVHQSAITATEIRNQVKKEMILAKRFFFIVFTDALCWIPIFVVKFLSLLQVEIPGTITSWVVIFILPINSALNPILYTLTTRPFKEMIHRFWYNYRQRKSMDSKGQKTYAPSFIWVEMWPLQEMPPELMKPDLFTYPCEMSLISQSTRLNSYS

Binder	EC50	Emax (Native two-chain relaxin = 100% Emax)
B1	1.5 nM	117%
B2	0.485 nM	112%
B3	–	118%
B4	52.6 nM	121%
